Data published in PMC11316058.

Biological target: Hsp90α (N-terminally His-tagged, human) (human) (UniProt P07900)
Experiment: ITC; Ahsa1 or Ahsa1^Δ20 (200-300 µM) in the syringe injected into Hsp90-α (30 µM) in the cell; 25 °C; 30 mM Tris pH 7.5, 20 mM KCl, 10% glycerol, 1 mM TCEP; two-site-binding model; three independent experiments

Kd [nM] | Substance
3200 | Ahsa1^Δ20 (C-terminal 6xHis) (from UniProt O95433 21-338) (domain or fragment)
1730 | full-length Ahsa1 (C-terminal 6xHis) (from UniProt O95433 1-338) (natural protein)
